Laboratory results from the DeepSol protein solubility set.

test: soluble on expression in E. coli; label from the status in PepcDB or PDB records

Row | Sequence | soluble on expression in E. coli
1 | GIVATRYRDFSPLLEALTQLLFYVTPIVWTTETLYSQGGAVSERAKLAMLNPLYHYMEVIRAPLIGAPIHP | not soluble
2 | MKALITAADIKKASETPEKILTISEADLITPAARDAAKELGVQITAHPVSLPPTVAPSPAFSPASPLDPALVSRIIEEVMVCLNRSGSPAQPQKEADPGGLRIVKGNSLILEDFATGNPRDQIKIKELFNKKECPLYSAGIMALDKTSYSLTPARDELNYIIEGTLECCIDNRCYTAQAGDTLYIPAQAKIILTAADKVKLFYVC | not soluble
3 | MISMKPRYKPDWESLREHTVPKWFDKAKFGIFIHWGIYSVPGWATPTGELGKVPMDAWFFQNPYAEWYENSLRIKESPTWEYHVKTYGENFEYEKFADLFTAEKWDPQEWADLFKKAGAKYVIPTTKHHDGFCLWGTKYTDFNSVKRGPKRDLVGDLAKAVREAGLRFGVYYSGGLDWRFTTEPIRYPEDLSYIRPNTYEYADYAYKQVMELVDLYLPDVLWNDMGWPEKGKEDLKYLFAYYYNKHPEGSVNDRWGVPHWDFKTAEYHVNYPGDLPGYKWEFTRGIGLSFGYNRNEGPEHMLSVEQLVYTLVDVVSKGGNLLLNVGPKGDGTIPDLQKERLLGLGEWLRKYGDAIYGTSVWERCCAKTEDGTEIRFTRKCNRIFVIFLGIPTGEKIVIEDLNLSAGTVRHFLTGERLSFKNVGKNLEITVPKKLLETDSITLVLEAVEEHHHHHH | soluble
4 | MTLYPFPFTTKKQDAESMVDLFSLIKDYLVDQEDGIRHLITWFLNLVMEEEALLQVGAQRYERTDSRKASRNGYKPRTLLTKYGELELLKPQFREFPFETQVFEKYSRVEQAILSAVAESYLQGVSTRRVDKVMTALGVEGISASSVSRITKELDEKVSEFLSKPIEHEIPYLFIDATYLKVRDGLHYENKALFIVSGVRDDGFREILGARLADSEDSLFWQDLFEDLKERGLRGVKLIVSDGHKGIQKAVRESFIGSSWQMCHVHLIRQALKKVQKKKQKEVADKIKEALVDRHKYNDLIRELDKMEYKSAADTLENFQYDVMNYMQFPQSHWRKIRTTNMMERTNKEIKRRTKVVGAFPNQESVLRLVVSILIDINEDWITGNRYIVMEQ | not soluble
5 | MSESLTWHDVIGNEKQQAYFQQTLQFVESQRQAGKVIYPPAKDVFNAFRFTEFGDVKVVILGQDPYHGPNQAHGLCFSVLPGVKTPPSLVNIYKELAQDIPGFQIPPHGYLQSWAQQGVLLLNTVLTVEQGMAHSHANTGWETFTDRVIDALNQHRNGLIFLLWGSHAQKKGQMIDRQRHHVLMAPHPSPLSAHRGFLGCRHFSKTNQLLQAQGIAPINWQPELES | soluble
6 | GAMEKFKTLLYDIPIECMEVSEEIISYAKLQLGKKLNDSIYVSLTDHINFAIQRNQKGLDIKNALLWETKRLYKDEFAIGKEALVMVKNKTGVSLPEDEAGFIALHIVNAELNEEMPNIINITKVMEEILSIVKYHFKIEFNEESLHYYRFVTDLKFFAQRLFNGTHMESEDDFLLDTVKEKYHRAYECTKKIQTYIEREYEHKLTSDELLYLTIDIERVVKQA | soluble
7 | MQVNFSSFLDNFFAMQVCREMTRNDVKFAISPQFLRISRHPHIP | not soluble
8 | VILIIVAYLVGILIRKRNDSRIAQLEERKQKLFDLPINEEIEEVKNLHLIGQSQTTFREWNQKWIDISTNSFADIENHIFEAENMNDNFHFFKASAEINNIESQLDLVEEDIKSIREALSRLKEQEEKNSARVKHALDLYEELQNSIEGNSDNFGSTLDEITKQLKNIESEFAEFVTLNSSGDPVEASSILDRAEEHTIALGQITEKIPAIVAKLEDDFPDQLDDLESGYRKLIEQNYHFPEKNIERHFQEIREAIRSNSSELVSLDLDRAEEKNADIQEKIDNLYSIFEREIASYKVVMRQKKILPDYLKHAKENNKKLQEELERLMLTYIFDETYEADVRSFTSDISSVETAVLPTLENFDNQVKPFSELEKIFEKSLNTLSAVENGQVEVFENLRAIEKNEAKARDELDVYIDKLHVIKRYMEKRNLPGIPESFLSVFFSTSAQIEALMDELSRGRINIDAVMRLTKTSKNAIEHLEETAYLVVQNATLTEQLLQYSNRYRSFEPAVQSSFEHALKLFEVDHDYDASLEEISYALETVEPGVTDRFVSSYEK | not soluble
9 | GSHMASPPTHNAHNWRLGQAPANWYNDTYPLSPPQRTPAGIRYRIAVIADLDTESRAQEENTWFSYLKKGYLTLSDSGDKVAVEWDKDHGVLESHLAYKGRGMELSDLIVFNGKLYSVDDRTGVVYQIEGSKAVPWVILSDGDGTVEKGFKAEWLAVKDERLYVGGLGKEWTTTTGDVVNENPEWVKVVGYKGSVDHENWVSNYNALRAAAGIQPPGYLIHESACWSDTLQRWFFLPRRASQERYSEKDDERKGANLLLSASPDFGDIAVSHVGAVVPTHGFSSFKFIPNTDDQIIVALKSEEDSGRVASYIMAFTLDGRFLLPETKIGSVKYEGIEFI | soluble
10 | GSHMVNIIQKFIPVGANNRPGYAMKPKYITVHNTANTAVGADAAAHARYLKNPDTTTSWHFTVDDKEIYQHLPLNENGWHAGDGNGSGNRASIGIEICENADGDFAKATANAQWLIKTLMAEHNISLANVVPHKYWSGKECPRKLLDKWDSFKAGIG | soluble
11 | MTRFSGKVALVTGSSNGIGRATAVLLAQEGAKVTITGRNADRLEETRQEILKSGVPEDHVLSIATDLATEKGQDELVNSTIQKFGRLDILVNNAGAAFNDDQGRVGVDQDVSVYDRIMQINMRSVVTLTQKAKEHLVKAKGEVVNVSSIGAGPQAQPTFMYYAMSKAALDQYTRSAAIDLIQYGVRVNSVSPGAVVTGFGEAMGMPADMHEKYGHFMESRKECIPCGKMGQPIDIANIIAFLADRKLSSYIIGQSIVADGGSTLVMGMQAHNFMDLLKQ | not soluble
12 | MSLFLQPLLAKKIIAEVKKMYEREVIIVNTDGLIMAGTNDERVGQFHEGALICAKERRSVIITKEDETRLKGVKAGINLPVFFDHDVISVFGLTGEPAEIQPFGELLRKMTELFIKESRHLEQSQWRERMLESFMIDWLQLKEWSPSFLEKAQLLGVDLSSRRQMILIQGYEWSPHDIEQMARSWKSSYPADLFIRWGNERILINHEVPQHEQRDRLLRKILHICSFANTASSQYTAAGAGRAVASSSLTDSYEQAEKALAVSLKRKTPIFEEDLKLDMCLTEISPGTRNEFPQRVLGKALEHQELMNTIRTFFHHDLSLKQTAEDMHIHINTLRYRLAKAEQLTGLRFDRTEDVVTMYVALYFLDQDTKEGGSHHHHHH | soluble
13 | MGSDKIHHHHHHMQFLYNKQAGEEFIQLQGENFNHLKVRRVKENSELNLRNLQDNFLYNYTITNLTRNSCTLKFLNKKSQNIKQSELNLALAIIDIKILEKTLPFLNELGVKKLHLVFTNFSQRNFKIDLERFEKIIISSCEQCGRNTKMDLIIHQSTQEFVQKFPNAIMVDFQGEQQSHFDEKELYFIGPEGGFNNDERLLFNRKISLKSSNILKSQTAIIAIASKILL | not soluble
14 | MATVQVDIVTPERKVFQGEADIVIARGVEGELGVMAGHIPLVTPLKTAPVRIKQGDKETLIAVSGGFLEVRPDKVNILADTAELPEEIDVERAKKAKARHETILKRLDKTDKDYLRHKRALERAEVRLQVANSKS | soluble
15 | MSLTEILIVEDDDIIATLIERFLLQREYVVCAKVATGEDALYKAAEHLPDLVLMDINLAGKIDGITATKFITAIFHIPVIFLSGQDDETTLERATMAEPASFIIKPFNAKDLYSNIEIALHNDREGHHHHHH | not soluble
16 | MGSDKIHHHHHHMHEHFMTPPPLSVTGKPAIRIGCAGWGIPPQHAALFPPGGGHLERYARLFDTVEIDSSFYRPHQHKTYVRWADTVPDSFRFWVKTPREITHQRRLLECEDSLLRFLEEISGLGYKLGGILVQLPPSLALDVPSAQAFFTLLRQHYAGVAACEPRHASWFSMQGEKLLQDFRLARVAADPAKFPTAGTPGGDTGFSYYRLHGAPEIYYSSYPEAYLRQLAHTLQASIGPAWCIFDNTARGGATANAWDIMRLLDKTMHQD | not soluble
17 | MSEQNTAKTLPDRNEIEESSTWRLEDIFQTDTEWEKEFQAIKELLPKLTEFKGKLGDSANNLLEALQYEDEISMRLGKLYTYAHMRYDQDTTNSVYQALNDRATNLYSQVSSSTAYIVPEILSISEDTLQTFLKENRDLSVYEHALEEITRQRPHVLSEAEEALLAEASEVMSTSSNTFGMLNNADLKFPSIKGEDGEEVEITHGRYIQFLESDDRRVREDAFKAVYETYGKYKNTFASTLSGAVKRNNFNARVRKYDSARQAALSNNNIPEAVYDQLIESVNDNLHLLHRYIDIRKRALGLDELHMYDLYTPLVPEVKMNVKYEEAQDMLLKSLHVLGDEYVDILKEAYENRWVDVYENKGKRSGAYSSGAYGTNPYILMNWHDNVNNLFTLAHEFGHSVHSYYTRKTQPHVYGDYSIFVAEVASTCNEALLNDYLLKTTEDKKERLYLLNHYLEGFRGTVFRQTMFAEFEHIIHKKVQEGHAVTPDMLTEIYYDLNKKYFGDALVIDEEIGLEWSRIPHFYYNYYVYQYATGFSAATALSKQILEEGQPAVERYINEFLKAGSSDYPIEVLKKAGVDMASPEPVKEALQVFEEKLNELEALLFEEK | not soluble
18 | MDKIRYGIMSTAQIVPRFVAGLRESAQAEVRGIASRRLENAQKMAKELAIPVAYGSYEELCKDETIDIIYIPTYNQGHYSAAKLALSQGKPVLLEKPFTLNAAEAEELFAIAQEQGVFLMEAQKSVFLPITQKVKATIQEGGLGEILWVQSVTAYPNVDHIPWFYSREAGGGALHGSGSYPLQYLQYVLGKEIQEVTGTATYQQGATDSQCNLALKFAEGTLGNIFINVGLKIPSEMTICGTKGQIVIPNFWKTDCAYYTDAQGNTVKWSEQFTSEFTYEINHVNQCLQDKKLTSPVMTKELTIATVKIVESFYQEWFDNE | not soluble
19 | MIKQIGTVAVYVEDQQKAKQFWTEKVGFDIAADHPMGPEASWLEVAPKGAETRLVIYPKAMMKGSEQMKASIVFECEDIFGTYEKMKTNGVEFLGEPNQMEWGTFVQFKDEDGNVFLLKE | not soluble
20 | MGSDKIHHHHHHMSNFNFDFAENDFGPLAAKMRPTSLEQYFGQSHLIGEGKPLRKAIQAGHIYSMIFWGPPGTGKTTLAEIIAQRINAEVERISAVTSGIKEIREAIDRAKQNRLADRKTILFVDEVHRFNKSQQDAFLPHIEDGTVIFIGATTENPSFELNNALLSRARVYVLKSLTTAEIEQVLQQAVEDPKRGLGKERLILEENLLQVLAEYVNGDARLALNCLELMVDMADETENGKKIDRTLLKEVLGERQARFDKQGDRFYDLISALHKSVRGSAPDAALYWYARILTAGGDPLYVARRLLAIASEDVGNADPRAMQVALAAWDCFSRVGAYEGERAIAQAIIYLSVAPKSNAVYTAFNTAKQQAKDLPDYDVPPHLRNAPTNLMKELGYGTEYRYAHDEPNAYAAGENYFPPELKDTQYYFPTNRGMEIQIKEKLERLREQDKSAVKKRYK | not soluble
21 | MGSDKIHHHHHHMKIGAVLTREQVISARYVHHGLLTPFPDPLVAAQRLAGVQAQILPAAGLALWNRVAGFSADQLEHLLYHERSLVRLWGQRGTLHLYAMTDWPLVYGMQAGQATYWEQEAQRDGWAVDEYEAFIARVGDLLYEHETLGRSDLRRLLPAIDQRHLSGWGGVFAILTRRGLACHAAPRGGEARMTHRLRWRPDLVWEPPDTDTANAEMLRRYLAVFGPVRLVDMTCWRGRTQAEMKRWLALIGEEVVRVSVDGQPAWWLQSYLDRLADLPTPADLPPHLLGRFDPLLLGTRDKSWLIDADVYNRVWRPAGHIEATMLVHGRIAGTWRYDWRGSSIVVTLRPFKPLPPSERIRIESLAAGVAEHFAAPLGDCRWEAVA | not soluble
